Reference: patent US8394929B2, “Nogo receptor-mediated blockade of axonal growth” (Yale University, priority 2000, dated 2013)

Legend:
wtNgR = molecular target: T1, wtNgR (Mus musculus, UniProt Q99PI8); experiment: AP-NgR binding to COS-7 cells transfected with wtNgR
T1 construct: wtNgR encodes residues 1 to 473 of mNgR; vector secretion signal (pSecTag2) (N); 6xHis (C); expressed in transfected cells; host or cells: COS-7
T1 sequence (Q99PI8 27-473): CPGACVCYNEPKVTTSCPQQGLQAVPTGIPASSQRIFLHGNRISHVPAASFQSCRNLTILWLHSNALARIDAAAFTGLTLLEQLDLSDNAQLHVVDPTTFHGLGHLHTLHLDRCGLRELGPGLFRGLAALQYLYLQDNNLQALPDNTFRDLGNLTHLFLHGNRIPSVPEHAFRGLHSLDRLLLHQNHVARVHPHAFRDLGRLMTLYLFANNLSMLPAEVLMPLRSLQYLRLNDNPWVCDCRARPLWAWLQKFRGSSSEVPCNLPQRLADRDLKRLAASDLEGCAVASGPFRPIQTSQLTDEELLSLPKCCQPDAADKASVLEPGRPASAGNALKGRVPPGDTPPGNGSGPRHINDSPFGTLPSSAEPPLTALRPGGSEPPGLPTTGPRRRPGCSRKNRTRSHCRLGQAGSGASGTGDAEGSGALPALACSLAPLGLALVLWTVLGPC
Description: (§1) A vector encoding AP-hNogo-A (1055-1120) was constructed as described in Fournier et al., supra). The vector encoding AP-NgR was made by ligating the mNgR coding sequence from residues 27-451 in frame with the signal sequence-6× His—placental alkaline phosphatase (AP) sequence of the vector known as pAP-6 (Nakamura et al., Neuron 2: 1093-1100, 1988).
(§2) NgR was tested for the ability to self-associate. For this study, mNgR [hereinafter, wtNgR or WT] and mNgR deletion mutants (see FIG. 18A) were transfected into COS-7 cells. Forty-eight hours after the transfection, the transfected COS-7 cells were washed with HBH. Cells were then incubated for 2 hours at 23° C. with a conditioned medium containing […] diluted in HBH. AP-fusion protein was detected as previously described for AP-Sema3A (Takahashi et al., Nature Neurosci. 1:487-493, 1998). Similar to the AP-Nogo binding profile, AP-NgR bound to wtNgR and NgRΔCT (FIG. 23). Nogo treatment had little, if any, effect on the NgR-NgR interaction (data not shown). […] The same NgR domains are required for GST-hNogo-A (1055-1120) binding and NgR oligomerization

NgR deletion mutants = experiment: AP-NgR binding to COS-7 cells transfected with other NgR deletion mutants; set-up: species or system mouse
Description: as §1, §2

NgRΔCT = molecular target: T2, NgRΔCT (Mus musculus, UniProt Q99PI8); experiment: AP-NgR binding to COS-7 cells transfected with NgRΔCT
T2 construct: encodes residues 26 to 305 and 443 to473 of mNgR; vector secretion signal (pSecTag2) (N); 6xHis (C); expressed in transfected cells; host or cells: COS-7
T2 sequence (Q99PI8 with tags, fused parts or gaps): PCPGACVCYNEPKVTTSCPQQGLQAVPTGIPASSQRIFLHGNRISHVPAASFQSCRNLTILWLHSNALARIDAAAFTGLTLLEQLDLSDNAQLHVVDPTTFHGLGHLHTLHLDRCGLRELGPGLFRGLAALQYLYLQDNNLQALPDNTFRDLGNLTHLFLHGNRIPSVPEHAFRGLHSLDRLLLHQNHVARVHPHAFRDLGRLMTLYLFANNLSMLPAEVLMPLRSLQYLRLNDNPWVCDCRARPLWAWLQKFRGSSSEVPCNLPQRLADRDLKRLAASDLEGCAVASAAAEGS
Description: as §1, §2

B1: AP-NgR: mNgR residues 27-451 fused to signal sequence-6x His-placental alkaline phosphatase (protein)
chain: HHHHHHIIPVEEENPDFWNREAAEALGAAKKLQPAQTAAKNLIIFLGDGMGVSTVTAARILKGQKKDKLGPEIPLAMDRFPYVALSKTYNVDKHVPDSGATATAYLCGVKGNFQTIGLSAAARFNQCNTTRGNEVISVMNRAKKAGKSVGVVTTTRVQHASPAGTYAHTVNRNWYSDADVPASARQEGCQDIATQLISNMDIDVILGGGRKYMFRMGTPDPEYPDDYSQGGTRLDGKNLVQEWLAKRQGARYVWNRTELMQASLDPSVTHLMGLFEPGDMKYEIHRDSTLDPSLMEMTEAALRLLSRNPRGFFLFVEGGRIDHGHHESRAYRALTETIMFDDAIERAGQLTSEEDTLSLVTADHSHVFSFGGYPLRGSSIFGLAPGKARDRKAYTVLLYGNGPGYVLKDGARPDVTESESGSPEYRQQSAVPLDEETHAGEDVAVFARGPQAHLVHGVQEQTFIAHVMAFAACLEPYTACDLAPPAGTTDAAHPGCPGACVCYNEPKVTTSCPQQGLQAVPTGIPASSQRIFLHGNRISHVPAASFQSCRNLTILWLHSNALARIDAAAFTGLTLLEQLDLSDNAQLHVVDPTTFHGLGHLHTLHLDRCGLRELGPGLFRGLAALQYLYLQDNNLQALPDNTFRDLGNLTHLFLHGNRIPSVPEHAFRGLHSLDRLLLHQNHVARVHPHAFRDLGRLMTLYLFANNLSMLPAEVLMPLRSLQYLRLNDNPWVCDCRARPLWAWLQKFRGSSSEVPCNLPQRLADRDLKRLAASDLEGCAVASGPFRPIQTSQLTDEELLSLPKCCQPDAADKASVLEPGRPASAGNALKGRVPPGDTPPGNGSGPRHINDSPFGTLPSSAEPPLTALRPGGSEPPGLPTTGPRRRPGCSRKNRTRSHCRLGQAGSGASGTGDAEGSGALP
binding (in words) (wtNgR): bound | binding (in words) (NgR deletion mutants): did not bind | binding (in words) (NgRΔCT): bound
